In patent publication US20210388087A1 (Chugai, published 2021):
Residue numbers refer to the chain shown, from its start.

B1: H183/L072 VL M27eQ (antibody, name in Kabat numbering, V domains shown)
VH: QVQLVESGGGLVQPGRSLRLSCAASGFTFSNAWMHWVRQAPGKGLEWVAQIKDKGNAYAAYYAPSVKGRFTISRDDSKNSIYLQMNSLKTEDTAVYYCHYVHYASASTVLPAFGVDAWGQGTTVTVSS
VL: DIVMTQSPLSLPVTPGEPASISCQASQELVHQNRNTYLHWYQQKPGQAPRLLIYKVSNRFPGVPDRFSGSGSGTDFTLKISRVEAEDVGVYYCAQGTSVPFTFGQGTKLEIK
notes: Dual-Ig
B2: H183/L072 VL M27eS (antibody, name in Kabat numbering, V domains shown)
VH: B1 VH
VL: B1 VL with Q32S
notes: Dual-Ig
B3: H183/L072 VL N30S (antibody, name in Kabat numbering, V domains shown)
VH: B1 VH
VL: B1 VL with Q32M, N35S
notes: Dual-Ig
B4: H183/L072 VL N28A (antibody, name in Kabat numbering, V domains shown)
VH: B1 VH
VL: B1 VL with Q32M, N33A
notes: Dual-Ig
B5: H183/L072 VL N30L (antibody, name in Kabat numbering, V domains shown)
VH: B1 VH
VL: B1 VL with Q32M, N35L
notes: Dual-Ig
B6: H183/L072 VL N28Y (antibody, name in Kabat numbering, V domains shown)
VH: B1 VH
VL: B1 VL with Q32M, N33Y
notes: Dual-Ig
B7: H183/L072 VL M27eY (antibody, name in Kabat numbering, V domains shown)
VH: B1 VH
VL: B1 VL with Q32Y
notes: Dual-Ig
B8: H183/L072 VL N30G (antibody, name in Kabat numbering, V domains shown)
VH: B1 VH
VL: B1 VL with Q32M, N35G
notes: Dual-Ig
B9: H183/L072 VL N30V (antibody, name in Kabat numbering, V domains shown)
VH: B1 VH
VL: B1 VL with Q32M, N35V
notes: Dual-Ig
B10: H183/L072 VL M27eV (antibody, name in Kabat numbering, V domains shown)
VH: B1 VH
VL: B1 VL with Q32V
notes: Dual-Ig
B11: H183/L072 VL N30Y (antibody, name in Kabat numbering, V domains shown)
VH: B1 VH
VL: B1 VL with Q32M, N35Y
notes: Dual-Ig
B12: H183/L072 VL N28R (antibody, name in Kabat numbering, V domains shown)
VH: B1 VH
VL: B1 VL with Q32M, N33R
notes: Dual-Ig
B13: H183/L072 VL M27eR (antibody, name in Kabat numbering, V domains shown)
VH: B1 VH
VL: B1 VL with Q32R
notes: Dual-Ig
B14: H183/L072 VL N28L (antibody, name in Kabat numbering, V domains shown)
VH: B1 VH
VL: B1 VL with Q32M, N33L
notes: Dual-Ig
B15: H183/L072 VL N30R (antibody, name in Kabat numbering, V domains shown)
VH: B1 VH
VL: B1 VL with Q32M, N35R
notes: Dual-Ig
B16: H183/L072 VL N30P (antibody, name in Kabat numbering, V domains shown)
VH: B1 VH
VL: B1 VL with Q32M, N35P
notes: Dual-Ig
B17: H183/L072 VL N28P (antibody, name in Kabat numbering, V domains shown)
VH: B1 VH
VL: B1 VL with Q32M, N33P
notes: Dual-Ig
B18: H183/L072 VL N30F (antibody, name in Kabat numbering, V domains shown)
VH: B1 VH
VL: B1 VL with Q32M, N35F
notes: Dual-Ig
B19: H183/L072 VL N53D (antibody, name in Kabat numbering, V domains shown)
VH: B1 VH
VL: B1 VL with Q32M, N58D
notes: Dual-Ig
B20: H183/L072 VL N30K (antibody, name in Kabat numbering, V domains shown)
VH: B1 VH
VL: B1 VL with Q32M, N35K
notes: Dual-Ig
B21: H183/L072 VL N28H (antibody, name in Kabat numbering, V domains shown)
VH: B1 VH
VL: B1 VL with Q32M, N33H
notes: Dual-Ig
B22: H183/L072 VL N30H (antibody, name in Kabat numbering, V domains shown)
VH: B1 VH
VL: B1 VL with Q32M, N35H
notes: Dual-Ig
B23: H183/L072 VL N28W (antibody, name in Kabat numbering, V domains shown)
VH: B1 VH
VL: B1 VL with Q32M, N33W
notes: Dual-Ig
B24: H183/L072 VL N28S (antibody, name in Kabat numbering, V domains shown)
VH: B1 VH
VL: B1 VL with Q32M, N33S
notes: Dual-Ig
B25: H183/L072 VL N30I (antibody, name in Kabat numbering, V domains shown)
VH: B1 VH
VL: B1 VL with Q32M, N35I
notes: Dual-Ig
B26: H183/L072 VL N30E (antibody, name in Kabat numbering, V domains shown)
VH: B1 VH
VL: B1 VL with Q32M, N35E
notes: Dual-Ig
B27: H183/L072 VL N28T (antibody, name in Kabat numbering, V domains shown)
VH: B1 VH
VL: B1 VL with Q32M, N33T
notes: Dual-Ig
B28: H183/L072 VL N28K (antibody, name in Kabat numbering, V domains shown)
VH: B1 VH
VL: B1 VL with Q32M, N33K
notes: Dual-Ig
B29: H183/L072 VL M27eT (antibody, name in Kabat numbering, V domains shown)
VH: B1 VH
VL: B1 VL with Q32T
notes: Dual-Ig
B30: H183/L072 VL N30M (antibody, name in Kabat numbering, V domains shown)
VH: B1 VH
VL: B1 VL with Q32M, N35M
notes: Dual-Ig
B31: H183/L072 VL N28G (antibody, name in Kabat numbering, V domains shown)
VH: B1 VH
VL: B1 VL with Q32M, N33G
notes: Dual-Ig
B32: H183/L072 VL N28V (antibody, name in Kabat numbering, V domains shown)
VH: B1 VH
VL: B1 VL with Q32M, N33V
notes: Dual-Ig
B33: H183/L072 VL N28M (antibody, name in Kabat numbering, V domains shown)
VH: B1 VH
VL: B1 VL with Q32M, N33M
notes: Dual-Ig
B34: H183/L072 VL N30Q (antibody, name in Kabat numbering, V domains shown)
VH: B1 VH
VL: B1 VL with Q32M, N35Q
notes: Dual-Ig
B35: H183/L072 VL N28I (antibody, name in Kabat numbering, V domains shown)
VH: B1 VH
VL: B1 VL with Q32M, N33I
notes: Dual-Ig
B36: H183/L072 VL N28E (antibody, name in Kabat numbering, V domains shown)
VH: B1 VH
VL: B1 VL with Q32M, N33E
notes: Dual-Ig
B37: H183/L072 VL M27eW (antibody, name in Kabat numbering, V domains shown)
VH: B1 VH
VL: B1 VL with Q32W
notes: Dual-Ig
B38: H183/L072 VL N28F (antibody, name in Kabat numbering, V domains shown)
VH: B1 VH
VL: B1 VL with Q32M, N33F
notes: Dual-Ig
B39: H183/L072 VL N30A (antibody, name in Kabat numbering, V domains shown)
VH: B1 VH
VL: B1 VL with Q32M, N35A
notes: Dual-Ig
B40: H183/L072 VL N30T (antibody, name in Kabat numbering, V domains shown)
VH: B1 VH
VL: B1 VL with Q32M, N35T
notes: Dual-Ig
B41: H183/L072 VL N30W (antibody, name in Kabat numbering, V domains shown)
VH: B1 VH
VL: B1 VL with Q32M, N35W
notes: Dual-Ig
B42: H183/L072 VL N30D (antibody, name in Kabat numbering, V domains shown)
VH: B1 VH
VL: B1 VL with Q32M, N35D
notes: Dual-Ig
B43: H183/L072 VL N53A (antibody, name in Kabat numbering, V domains shown)
VH: B1 VH
VL: B1 VL with Q32M, N58A
notes: Dual-Ig
B44: H183/L072 VL N28Q (antibody, name in Kabat numbering, V domains shown)
VH: B1 VH
VL: B1 VL with Q32M, N33Q
notes: Dual-Ig

The binders below were run against T1, Human CD137 ECD (human) (assay: Biacore SPR, vs parent H183/L072).
T1 construct: entry includes C-terminal His-tag and biotin acceptor peptide; also called human CD137 extracellular domain; 4-1BB
T1 sequence (chain, as listed by the source limits assumed): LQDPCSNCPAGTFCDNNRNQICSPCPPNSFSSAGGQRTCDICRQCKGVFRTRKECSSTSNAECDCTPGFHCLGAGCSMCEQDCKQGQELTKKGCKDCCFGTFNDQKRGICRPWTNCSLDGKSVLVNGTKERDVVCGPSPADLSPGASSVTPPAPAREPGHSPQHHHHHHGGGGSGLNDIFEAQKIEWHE

Row | fold change of affinity [fold] | Binder
1 | 1 | B1
2 | 0.9 | B2
3 | 0.2 | B3
4 | 0.4 | B4
5 | 0.3 | B5
6 | 0.4 | B6
7 | 0.7 | B7
8 | 0.9 | B8
9 | 0.7 | B9
10 | 0.9 | B10
11 | 0.6 | B11
12 | 0.4 | B12
13 | 1 | B13
14 | 0.3 | B14
15 | 0.5 | B15
16 | 0.4 | B16
17 | 0.4 | B17
18 | 0.9 | B18
19 | 0.3 | B19
20 | 0.6 | B20
21 | 0.4 | B21
22 | 1 | B22

Row | fold change of affinity [fold] | Binder
23 | 0.3 | B23
24 | 0.5 | B24
25 | 0.3 | B25
26 | 0.1 | B26
27 | 0.5 | B27
28 | 0.3 | B28
29 | 0.9 | B29
30 | 1.8 | B30
31 | 0.5 | B31
32 | 0.3 | B32
33 | 0.4 | B33
34 | 1 | B34
35 | 0.3 | B35
36 | 0.2 | B36
37 | 0.7 | B37
38 | 0.4 | B38
39 | 0.7 | B39
40 | 0.3 | B40
41 | 0.9 | B41
42 | 0.1 | B42
43 | 0.7 | B43
44 | 0.4 | B44
